Measurements taken from patent publication US20190338269.

B1: factor VIIa/tissue factor (TF) complex (protein)
chain 1: ANAFLEELRPGSLERECKEEQCSFEEAREIFKDAERTKLFWISYSDGDQCASSPCQNGGSCKDQLQSYICFCLPAFEGRNCETHKDDQLICVNENGGCEQYCSDHTGTKRSCRCHEGYSLLADGVSCTPTVEYPCGKIPILEKRNASKPQGRIVGGKVCPKGECPWQVLLLVNGAQLCGGTLINTIWVVSAAHCFDKIKNWRNLIAVLGEHDLSEHDGDEQSRRVAQVIIPSTYVPGTTNHDIALLRLHQPVVLTDHVVPLCLPERTFSERTLAFVRFSLVSGWGQLLDRGATALELMVLNVPRLMTQDCLQQSRKVGDSPNITEYMFCAGYSDGSKDSCKGDSGGPHATHYRGTWYLTGIVSWGQGCATVGHFGVYTRVSQYIEWLQKLMRSEPRPGVLLRAPFP
chain 2: SGTTNTVAAYNLTWKSTNFKTILEWEPKPVNQVYTVQISTKSGDWKSKCFYTTDTECDLTDEIVKDVKQTYLARVFSYPAGNVESTGSAGEPLYENSPEFTPYLETNLGQPTIQSFEQVGTKVNVTVEDERTLVRRNNTFLSLRDVFGKDLIYTLYYWKSSSSGKKTAKTNTNEFLIDVDKGENYCFSVQAVIPSRTVNRKSTDSPVECMGQEKGEFREIFYIIGAVVFVVIILVIILAISLHKCRKAGVGQSWKENSPLNVS

How the values were obtained:
plasma factor X = plasma factor X (UniProt P00742)
Chain of plasma factor X (P00742 whole entry, looked up): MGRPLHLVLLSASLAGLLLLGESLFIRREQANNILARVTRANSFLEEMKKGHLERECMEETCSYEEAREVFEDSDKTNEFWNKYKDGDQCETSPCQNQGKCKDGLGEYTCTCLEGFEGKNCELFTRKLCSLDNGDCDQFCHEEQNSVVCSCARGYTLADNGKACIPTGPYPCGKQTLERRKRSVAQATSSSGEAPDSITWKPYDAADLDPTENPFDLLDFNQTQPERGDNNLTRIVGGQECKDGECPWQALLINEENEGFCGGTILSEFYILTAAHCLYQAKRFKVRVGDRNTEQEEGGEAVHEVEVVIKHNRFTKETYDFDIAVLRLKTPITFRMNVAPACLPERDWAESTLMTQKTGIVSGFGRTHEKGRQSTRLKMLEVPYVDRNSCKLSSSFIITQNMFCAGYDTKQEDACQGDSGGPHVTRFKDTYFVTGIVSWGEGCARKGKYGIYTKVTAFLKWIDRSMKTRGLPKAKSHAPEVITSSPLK

Chain of plasma factor X, P00742 (P00742 whole entry, looked up): as above

Molecule | appearance of FXa activity after incubation with thrombin (100 nM FX / 10 nM IIa, up to 8 h) (plasma factor X) | FXa generated after incubation with FVIIa/TF (rate of hydrolysis of PNAPEP substrate) (plasma factor X, P00742)
thrombin | did not result in the appearance of FXa activity | 
B1 |  | the already activated plasma FX and the plasma FX treated with the FVIIa/FT both gave a positive signal of the same order of magnitude
